Reference: patent publication US10941182 (Amgen, dated 2021)
Starred links: 1 amine or outer side, 2 acyl side, 3 side chain; linkers in the order of their positions; H or OH if unused. Non-standard residues stand in square brackets, D forms with d. *: point of attachment. C18 diacid = O=C(O)CCCCCCCCCCCCCCCCC(=O)*; dBip = N[C@H](Cc1ccc(-c2ccccc2)cc1)C(=O)O; Oic = O=C(O)[C@@H]1C[C@@H]2CCCC[C@@H]2N1; dPhe(4-Cl) = N[C@H](Cc1ccc(Cl)cc1)C(=O)O; Heptadecanoyl = CCCCCCCCCCCCCCCCC(=O)*; Phe(4-I) = N[C@@H](Cc1ccc(I)cc1)C(=O)O; γGlu = O=C(O)[C@H](CCC(=O)[*:2])N[*:1]; 2Nal = N[C@@H](Cc1ccc2ccccc2c1)C(=O)O; Pentadecanoyl = CCCCCCCCCCCCCCC(=O)*; Tridecanoyl = CCCCCCCCCCCCC(=O)*; hArg = N=C(N)NCCCC[C@H](N)C(=O)O; Cha = N[C@@H](CC1CCCCC1)C(=O)O; NMeL = CN[C@@H](CC(C)C)C(=O)O; Nle = CCCC[C@H](N)C(=O)O; Orn = NCCC[C@H](N)C(=O)O; AEEA = NCCOCCOCC(=O)O

T1: rat APJ receptor (rat, UniProt Q9JHG3 1-377)
T1 sequence (looked up): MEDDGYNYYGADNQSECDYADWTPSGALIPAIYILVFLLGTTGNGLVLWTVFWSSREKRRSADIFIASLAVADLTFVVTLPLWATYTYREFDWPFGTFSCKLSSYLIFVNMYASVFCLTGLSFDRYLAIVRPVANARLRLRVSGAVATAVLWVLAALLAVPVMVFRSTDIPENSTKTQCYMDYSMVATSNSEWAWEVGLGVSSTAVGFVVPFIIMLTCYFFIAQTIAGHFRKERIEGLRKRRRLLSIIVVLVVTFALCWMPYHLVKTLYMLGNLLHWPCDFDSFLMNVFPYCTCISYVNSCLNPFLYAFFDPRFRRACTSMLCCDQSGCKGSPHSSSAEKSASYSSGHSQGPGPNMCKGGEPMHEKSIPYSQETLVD

T2: human APJ receptor (human, UniProt P35414 1-380)
T2 sequence (looked up): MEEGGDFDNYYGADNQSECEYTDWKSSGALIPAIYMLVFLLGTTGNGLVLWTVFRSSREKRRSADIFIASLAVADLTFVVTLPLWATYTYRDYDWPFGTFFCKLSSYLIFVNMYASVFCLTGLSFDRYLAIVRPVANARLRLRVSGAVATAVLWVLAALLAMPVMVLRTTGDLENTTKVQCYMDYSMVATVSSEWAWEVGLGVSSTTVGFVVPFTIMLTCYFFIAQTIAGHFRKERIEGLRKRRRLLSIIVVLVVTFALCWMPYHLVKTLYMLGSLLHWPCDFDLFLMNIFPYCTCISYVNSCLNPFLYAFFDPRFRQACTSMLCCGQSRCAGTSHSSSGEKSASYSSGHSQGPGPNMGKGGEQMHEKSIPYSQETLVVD


Legend:
[1] = target: T1, rat APJ receptor; assay: cell-based or functional assay
[2] = target: T2, human APJ receptor; assay: cell-based or functional assay

Row | EC50 Rat APJ Receptor [1] | EC50 Human APJ Receptor [2] | Binder
1 | 193 nM | 145 nM | {C18 diacid}-[γGlu][AEEA][AEEA][hArg][dR]Q[hArg]P[dR][NMeL]SHKG[Oic][Phe(4-I)]P[dBip]-OH (SMILES CC(C)C[C@@H](C(=O)N[C@@H](CO)C(=O)N[C@@H](Cc1c[nH]cn1)C(=O)N[C@@H](CCCCN)C(=O)NCC(=O)N1[C@H](C(=O)N[C@@H](Cc2ccc(I)cc2)C(=O)N2CCC[C@H]2C(=O)N[C@H](Cc2ccc(-c3ccccc3)cc2)C(=O)O)C[C@@H]2CCCC[C@@H]21)N(C)C(=O)[C@@H](CCCNC(=N)N)NC(=O)[C@@H]1CCCN1C(=O)[C@H](CCCCNC(=N)N)NC(=O)[C@H](CCC(N)=O)NC(=O)[C@@H](CCCNC(=N)N)NC(=O)[C@H](CCCCNC(=N)N)NC(=O)COCCOCCNC(=O)COCCOCCNC(=O)CC[C@H](NC(=O)CCCCCCCCCCCCCCCCC(=O)O)C(=O)O) [apelin polypeptide SEQ ID NO: 264]
2 | 9.38 nM | 4.74 nM | Tridecanoyl-[γGlu][AEEA][AEEA][hArg][dR]Q[hArg]P[dR][NMeL]SHKG[Oic][Phe(4-I)]P[dBip]-OH (SMILES CCCCCCCCCCCCC(=O)N[C@@H](CCC(=O)NCCOCCOCC(=O)NCCOCCOCC(=O)N[C@@H](CCCCNC(=N)N)C(=O)N[C@H](CCCNC(=N)N)C(=O)N[C@@H](CCC(N)=O)C(=O)N[C@@H](CCCCNC(=N)N)C(=O)N1CCC[C@H]1C(=O)N[C@H](CCCNC(=N)N)C(=O)N(C)[C@@H](CC(C)C)C(=O)N[C@@H](CO)C(=O)N[C@@H](Cc1c[nH]cn1)C(=O)N[C@@H](CCCCN)C(=O)NCC(=O)N1[C@H](C(=O)N[C@@H](Cc2ccc(I)cc2)C(=O)N2CCC[C@H]2C(=O)N[C@H](Cc2ccc(-c3ccccc3)cc2)C(=O)O)C[C@@H]2CCCC[C@@H]21)C(=O)O) [apelin polypeptide SEQ ID NO: 261]
3 | 14.5 nM | 1.2 nM | Tridecanoyl-[γGlu][AEEA][AEEA][dQ][hArg]P[dR][Cha]SHKG[Oic][Nle]P[dPhe(4-Cl)]-OH (SMILES CCCCCCCCCCCCC(=O)N[C@@H](CCC(=O)NCCOCCOCC(=O)NCCOCCOCC(=O)N[C@H](CCC(N)=O)C(=O)N[C@@H](CCCCNC(=N)N)C(=O)N1CCC[C@H]1C(=O)N[C@H](CCCNC(=N)N)C(=O)N[C@@H](CC1CCCCC1)C(=O)N[C@@H](CO)C(=O)N[C@@H](Cc1c[nH]cn1)C(=O)N[C@@H](CCCCN)C(=O)NCC(=O)N1[C@H](C(=O)N[C@@H](CCCC)C(=O)N2CCC[C@H]2C(=O)N[C@H](Cc2ccc(Cl)cc2)C(=O)O)C[C@@H]2CCCC[C@@H]21)C(=O)O) [apelin polypeptide SEQ ID NO: 265]
4 | 6.71 nM | 4.42 nM | Pentadecanoyl-[γGlu][AEEA][AEEA][hArg][dR]Q[hArg]P[dR][NMeL]SHKG[Oic][Phe(4-I)]P[dBip]-OH (SMILES CCCCCCCCCCCCCCC(=O)N[C@@H](CCC(=O)NCCOCCOCC(=O)NCCOCCOCC(=O)N[C@@H](CCCCNC(=N)N)C(=O)N[C@H](CCCNC(=N)N)C(=O)N[C@@H](CCC(N)=O)C(=O)N[C@@H](CCCCNC(=N)N)C(=O)N1CCC[C@H]1C(=O)N[C@H](CCCNC(=N)N)C(=O)N(C)[C@@H](CC(C)C)C(=O)N[C@@H](CO)C(=O)N[C@@H](Cc1c[nH]cn1)C(=O)N[C@@H](CCCCN)C(=O)NCC(=O)N1[C@H](C(=O)N[C@@H](Cc2ccc(I)cc2)C(=O)N2CCC[C@H]2C(=O)N[C@H](Cc2ccc(-c3ccccc3)cc2)C(=O)O)C[C@@H]2CCCC[C@@H]21)C(=O)O) [apelin polypeptide SEQ ID NO: 262]
5 | 5.91 nM | 3.99 nM | Heptadecanoyl-[γGlu][AEEA][AEEA][hArg][dR]Q[hArg]P[dR][NMeL]SHKG[Oic][Phe(4-I)]P[dBip]-OH (SMILES CCCCCCCCCCCCCCCCC(=O)N[C@@H](CCC(=O)NCCOCCOCC(=O)NCCOCCOCC(=O)N[C@@H](CCCCNC(=N)N)C(=O)N[C@H](CCCNC(=N)N)C(=O)N[C@@H](CCC(N)=O)C(=O)N[C@@H](CCCCNC(=N)N)C(=O)N1CCC[C@H]1C(=O)N[C@H](CCCNC(=N)N)C(=O)N(C)[C@@H](CC(C)C)C(=O)N[C@@H](CO)C(=O)N[C@@H](Cc1c[nH]cn1)C(=O)N[C@@H](CCCCN)C(=O)NCC(=O)N1[C@H](C(=O)N[C@@H](Cc2ccc(I)cc2)C(=O)N2CCC[C@H]2C(=O)N[C@H](Cc2ccc(-c3ccccc3)cc2)C(=O)O)C[C@@H]2CCCC[C@@H]21)C(=O)O) [apelin polypeptide SEQ ID NO: 263]
6 | 2.09 nM | 2.59 nM | Heptadecanoyl-[γGlu][AEEA][AEEA][Orn]F[hArg][hArg]QRP[hArg][NMeL]SHKG[Oic][Nle][2Nal]-OH (SMILES CCCCCCCCCCCCCCCCC(=O)N[C@@H](CCC(=O)NCCOCCOCC(=O)NCCOCCOCC(=O)N[C@@H](CCCN)C(=O)N[C@@H](Cc1ccccc1)C(=O)N[C@@H](CCCCNC(=N)N)C(=O)N[C@@H](CCCCNC(=N)N)C(=O)N[C@@H](CCC(N)=O)C(=O)N[C@@H](CCCNC(=N)N)C(=O)N1CCC[C@H]1C(=O)N[C@@H](CCCCNC(=N)N)C(=O)N(C)[C@@H](CC(C)C)C(=O)N[C@@H](CO)C(=O)N[C@@H](Cc1c[nH]cn1)C(=O)N[C@@H](CCCCN)C(=O)NCC(=O)N1[C@H](C(=O)N[C@@H](CCCC)C(=O)N[C@@H](Cc2ccc3ccccc3c2)C(=O)O)C[C@@H]2CCCC[C@@H]21)C(=O)O) [apelin polypeptide SEQ ID NO: 259]
7 | 2.57 nM | 1.75 nM | Pentadecanoyl-[γGlu][AEEA][AEEA][Orn]F[hArg][hArg]QRP[hArg][NMeL]SHKG[Oic][Nle][2Nal]-OH (SMILES CCCCCCCCCCCCCCC(=O)N[C@@H](CCC(=O)NCCOCCOCC(=O)NCCOCCOCC(=O)N[C@@H](CCCN)C(=O)N[C@@H](Cc1ccccc1)C(=O)N[C@@H](CCCCNC(=N)N)C(=O)N[C@@H](CCCCNC(=N)N)C(=O)N[C@@H](CCC(N)=O)C(=O)N[C@@H](CCCNC(=N)N)C(=O)N1CCC[C@H]1C(=O)N[C@@H](CCCCNC(=N)N)C(=O)N(C)[C@@H](CC(C)C)C(=O)N[C@@H](CO)C(=O)N[C@@H](Cc1c[nH]cn1)C(=O)N[C@@H](CCCCN)C(=O)NCC(=O)N1[C@H](C(=O)N[C@@H](CCCC)C(=O)N[C@@H](Cc2ccc3ccccc3c2)C(=O)O)C[C@@H]2CCCC[C@@H]21)C(=O)O) [apelin polypeptide SEQ ID NO: 258]
8 | 75 nM | 48.5 nM | {C18 diacid}-[γGlu][AEEA][AEEA][Orn]F[hArg][hArg]QRP[hArg][NMeL]SHKG[Oic][Nle][2Nal]-OH (SMILES CCCC[C@H](NC(=O)[C@@H]1C[C@@H]2CCCC[C@@H]2N1C(=O)CNC(=O)[C@H](CCCCN)NC(=O)[C@H](Cc1c[nH]cn1)NC(=O)[C@H](CO)NC(=O)[C@H](CC(C)C)N(C)C(=O)[C@H](CCCCNC(=N)N)NC(=O)[C@@H]1CCCN1C(=O)[C@H](CCCNC(=N)N)NC(=O)[C@H](CCC(N)=O)NC(=O)[C@H](CCCCNC(=N)N)NC(=O)[C@H](CCCCNC(=N)N)NC(=O)[C@H](Cc1ccccc1)NC(=O)[C@H](CCCN)NC(=O)COCCOCCNC(=O)COCCOCCNC(=O)CC[C@H](NC(=O)CCCCCCCCCCCCCCCCC(=O)O)C(=O)O)C(=O)N[C@@H](Cc1ccc2ccccc2c1)C(=O)O) [apelin polypeptide SEQ ID NO: 260]
